# Results reported in patent US20160137713A1 (HANALL BIOPHARMA, published 2016).
# B1: HL161-11H (antibody, V domains shown)
# VH: QMQLVESGGGLVQPGRSLRLSCAASGFTFSSYAMHWVRQAPGKGLEWVAVISYDGSNKYYADSVKGRFTISRDNSKNTLYLQMNSLRSEDTAVYYCSRGSGGRDAFDVWGQGTMITVSS
# VL: DIQMTQSPSTLSASVGDRVTITCRASQSISSRLAWYQQKPGKAPKLLIYKASSLETGVPSRFSGSGSGTEFTLTISSLQPDDFATYYCQQTNSFPLTFGGGTKVEIK
# notes: Whole human IgG from pNATAB vectors
# How the values were obtained:
# [1] = target: T1, human FcRn on HEK293 cells (human, UniProt P55899 24-365; P61769 21-119); experiment: FACS on hFcRn-overexpressing HEK293 cells at pH 7.4, Alexa488 anti-human goat antibody; MFI relative to hIgG1
# T1 construct: whole, on cells; also called hFcRn
# T1 sequence (P55899 24-365, chain 1 of 2): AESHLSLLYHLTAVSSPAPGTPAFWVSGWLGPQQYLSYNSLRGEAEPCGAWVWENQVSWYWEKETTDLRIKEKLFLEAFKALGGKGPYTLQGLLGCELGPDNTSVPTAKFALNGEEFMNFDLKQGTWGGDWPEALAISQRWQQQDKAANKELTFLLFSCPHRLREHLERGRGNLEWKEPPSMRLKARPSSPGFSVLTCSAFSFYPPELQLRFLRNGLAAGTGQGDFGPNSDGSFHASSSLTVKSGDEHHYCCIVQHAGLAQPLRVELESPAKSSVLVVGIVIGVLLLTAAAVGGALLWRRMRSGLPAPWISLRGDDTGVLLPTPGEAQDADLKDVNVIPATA
# T1 sequence (P61769 21-119, chain 2 of 2): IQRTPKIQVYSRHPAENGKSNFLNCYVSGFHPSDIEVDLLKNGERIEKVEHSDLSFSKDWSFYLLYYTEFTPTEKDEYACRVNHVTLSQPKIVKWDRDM
# Description: In stable HEK293 cells expressing human FcRn, the degrees of binding of antibody to FcRn at various pHs were analyzed using a FACS system. Specifically, 100,000 stable HEK293 cells were washed with PBS and centrifuged in a table top microcentrifuge at 4500 rpm for 5 minutes to obtain pellets. 1 μg of antibody was added to 100 μl of pH 6.0 or pH 7.4PBS/10 mM EDTA. The cell pellets were resuspended in 100 μl of the antibody solution and incubated on ice for 60 minutes. The cells were washed once with 150 μl of buffer having pH difference, and then pellets were obtained therefrom. Alexa488-labeled anti-human antibody goat antibody (1 mg/ml) was diluted at 1:20 in buffer having pH difference, and the pellets were resuspended in 100 μl of the buffer, and then cultured on ice for 60 minutes. The cells were washed once with 150 μl of buffer having pH difference, and pellets were obtained therefrom and resuspended in buffer having pH difference. The suspension was transferred into a tube for FACS analysis. These cells were analyzed by FACS using BD FACSDiva™ v6.1.3 software (BD Bioscience). The results of the analysis were expressed as Mean Fluorescence Intensity (MFI) (see FIG. 2).
# [2] = target: T1, human FcRn on HEK293 cells; experiment: FACS competition on hFcRn HEK293 cells at pH 6.0; remaining binding of 100 nM Alexa488-labeled hIgG1 (m14) with 1000 nM competitor antibody, percent of the tube without competitor
# Description: In stable HEK293 cells expressing human FcRn, the blocking of the antibody against FcRn was analyzed by FACS. The antibody was diluted in binding buffer (PBS pH 6.0, 10 mM EDTA) at concentrations of 2,000 nM, […] to make 50 μl of dilutions, which were dispensed into tubes. […] Stable HEK293 cells were diluted in binding buffer at a concentration of 2,500,000 cells/ml, and 40 μl of the cell dilution was added to each of the labeled antibody-containing tubes. Thus, a final volume of 100 μl contained 100,000 cells, 100 nM labeled antibody and 1000 nM, 500 nM or 250 nM competitor antibody. The cells were washed once with 150 μl of buffer (pH 6.0), and pellets were obtained therefrom and resuspended in 150 μl of buffer having pH difference. The suspension was transferred into a tube for FACS analysis. The cells were analyzed by FACS using BD FACSDiva™ v6.1.3 software (BD Bioscience). The results of the analysis were expressed as mean fluorescence intensity (MFI).
# The MFI of the test group was processed after subtracting the MFI (background signal) measured in cells alone.
binder,measurement,setting,value
B1,Relative MFI (Fold),[1],10.6 fold
same,Relative MFI(%) at 1000nM,[2],51.8%
